One series has as its target T1, Mcl-1 Bim-BH3 complex (Homo sapiens, UniProt Q07820).
T1 construct: mutated to delete their transmembrane domains; made in house; host or cells: E. coli BL21 (D3)
In words: HSMCB on Mcl-1-Bim non-covalently bound beads. It is filed as binding. The note with it: Bim-BH3 10 uM to 50 uM, FIG. 14.

The target of a further series is T2, MCL-1/BIM heterodimer (Homo sapiens, UniProt Q07820).
T2 construct: mutated to delete their transmembrane domains; made in house; host or cells: E. coli BL21 (D3)
In words: ELISA: Mcl-1-GST on glutathione-coated plates with or without Bim-BH3 peptide, detected with HSMCB antibody. To be noted: Mcl-1-GST with or without Bim-BH3 peptide, FIG. 1. It is filed as binding. Here is the method:
Genes encoding human Mcl-1 were cloned and mutated to delete their transmembrane domains. The mutated genes were then linked to a nucleotide sequence encoding Glutathione-S-transferase (GST) and cloned into pGEX 4T-1 to obtain DNA constructs for expressing Mcl-1(Δ)-GST fusion proteins. DNA constructs for expressing full length human Bim, all fused with GST, were prepared by recombinant technology.
The plates were then washed three times with PBS containing 0.05% TWEEN 20™ (PBST) and blocked with 50 μl PBS containing 2.0% bovine serum albumin (BSA) at room temperature for 1 hour. The plates were then washed again three times with PBST. Afterwards, 100 μl of a hybridoma supernatant was added to designated wells. The plates were incubated at room temperature for 1 hour on a shaker apparatus and then washed three times with wash buffer. Next, 50 μl of HRP-conjugated goat anti-mouse IgG Fc (Cappel Laboratories), diluted 1:1000 in assay buffer (0.5% bovine serum albumin, 0.05% % TWEEN 20™, 0.01% Thimersol in PBS), was added to each well. […] 50 μl of […] was added to each well to stop the reaction and absorbance at 450 nm in each well is read in a microliter plate reader. […]

For series [1], the system named is FFPE breast cancer patient biopsy (BCa_01 NV401). Nature of the series: IHC staining of serial sections from a FFPE breast cancer patient biopsy. More on the design: species or system human. To be noted: compared with HSBXB, 10× objective, FIG. 8. An excerpt: The image on the left side of FIG. 8 is of an HSMCB antibody having CDRs selected from SEQ ID NO: 9, SEQ ID NO: 10, SEQ ID NO: 11, SEQ ID NO: 12, SEQ ID NO: 13, SEQ ID NO: 14, and having a variable heavy chain selected from SEQ ID NO: 15, and a variable light chain selected from SEQ ID NO: 16.
In these experiments, PDX stains were used for image analysis software from Leica and Halo were compared for quantitative analysis.

The format of series [2] is physicochemical. The protocol:
FIG. 2 is a graph showing the selective binding of the MCL-1/BIM heterodimer (HSMCB) antibody to the MCL-1/BIM heterodimer, and the stability of this antibody at 4° C. for about 2 months. Each line in the graph follows the order in the legend (i.e., the top line is for sample 5-01-20b, the next line is for 5-22-20b, the next line is for 5-29b; this pattern is throughout the entire graph). The antibody in this figure is an antibody having CDRs selected from SEQ ID NO: 9, SEQ ID NO: 10, SEQ ID NO: 11, SEQ ID NO: 12, SEQ ID NO: 13, SEQ ID NO: 14, and having a variable heavy chain selected from SEQ ID NO: 15, and a variable light chain selected from SEQ ID NO: 16. […]

T2 sequence (Q07820 1-327 limits assumed): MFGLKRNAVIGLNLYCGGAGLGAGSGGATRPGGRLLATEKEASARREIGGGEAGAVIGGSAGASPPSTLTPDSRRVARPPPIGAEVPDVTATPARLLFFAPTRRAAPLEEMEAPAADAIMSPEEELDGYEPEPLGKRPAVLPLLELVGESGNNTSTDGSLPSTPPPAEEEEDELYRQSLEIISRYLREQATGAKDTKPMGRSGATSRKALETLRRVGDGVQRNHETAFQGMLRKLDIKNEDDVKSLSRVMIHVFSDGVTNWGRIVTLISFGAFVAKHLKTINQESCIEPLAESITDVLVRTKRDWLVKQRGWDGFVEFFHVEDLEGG
T2 sequence (O43521 146-166 partner limits assumed): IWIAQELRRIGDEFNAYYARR
T1 sequence (Q07820 1-327 limits assumed): as the sequence (Q07820 1-327 limits assumed) above

B1: HSMCB (SEQ ID NO: 7, SEQ ID NO: 8): MCL-1/BIM heterodimer antibody, CDRs SEQ ID NO: 1-6, variable heavy chain SEQ ID NO: 7, variable light chain SEQ ID NO: 8 (antibody, V domains shown)
VH: MNFGLSLIFLVLVLKGVQCEVQLVESGGDLVKPGGSLKLSCAVSGFTFSSYAMSWVRQTPAKRLEWVATISSGGFATYYPDTVKGRFTISRDNAKNTLYLQMSSLRSEDTAMYYCARHGGGSYGWFAYWGQGTLVTVSE
VL: MLSLAPLLSLLLLCVSDSRAETTVTQSPASLSVATGEKVTIRCITSTDIDDDMNWYQQKPGEPPKLLISEGNTLRPGVPSRFSSSGYGTDFVFTIENTLSEDFADYYCLQSDNMPYTFGGGTKLEIK
In the case of B1, the “recognition of Mcl-1 Bim-BH3 complex on beads” value with Mcl-1 Bim-BH3 complex is on record as “recognize the Mcl-1 Bim-BH3 complex at a significant level”. The “selective binding to the MCL-1/BIM heterodimer versus monomer” value in the series with MCL-1/BIM heterodimer was “preferentially react with the heterodimer and not to the monomer”.

B2: HSMCB (SEQ ID NO: 15, SEQ ID NO: 16): MCL-1/BIM heterodimer antibody, CDRs SEQ ID NO: 9-14, variable heavy chain SEQ ID NO: 15, variable light chain SEQ ID NO: 16 (antibody, V domains shown)
VH: MDWIWIMLHLLAAATGLQSQVHLQQSGSELRSPGSSVKLSCKDFDSEVFPIAYMSWVRQKPGHGFEWIGDILPSIGRTIYGEKFEDKATLDADTVSNTAYLELNSLTSEDSAIYYCARQDTYYAMDYWGQGTSVTVSS
VL: MHFQVQIFSFLLISASVIMSRGQIVLTQSPAIMSASPGEKVTITCSASSSVSYMHWVQQKPGTSPKLWIYSTSNLASGVPARFRGSGSGTSYSLTISRMEAEDAATYYCQQRSSYPYTFGGGTKLEIK
Take B2: the “IHC reactivity with tissue sample” value in series [1] is reported as “higher reactivity”. The “selective binding to the MCL-1/BIM heterodimer versus monomer” value with MCL-1/BIM heterodimer was “preferentially react with the heterodimer and not to the monomer”. In series [2], the “stability of the antibody at 4° C.” value was “about 2 months”.

For the origin of these results see US20240425583A1, “METHODS AND COMPOSITIONS RELATED TO MCL-1 AND BIM HETERODIMER ANTIBODIES” (priority 2021, published 2024).
